From patent publication US10450368

Tests used:
[1] = biological target: CH0505_CON D7gp120/293i; test: ELISA
[2] = biological target: CH505.w30.12D8gp120; test: ELISA
[3] = biological target: CH505w020.14D8gp120; test: ELISA
[4] = biological target: CH505w030.20D8gp120/293F; test: ELISA
[5] = biological target: Centromere B (UniProt P07199); test: AtheNA, Ab 25 ug/ml
[6] = biological target: Histones; test: AtheNA, Ab 25 ug/ml
[7] = biological target: Jo-1 (UniProt P12081); test: AtheNA, Ab 25 ug/ml
[8] = biological target: RNP (ribonucleoprotein); test: AtheNA, Ab 25 ug/ml
[9] = biological target: SSA; test: AtheNA, Ab 25 ug/ml
[10] = biological target: SSB (UniProt P05455); test: AtheNA, Ab 25 ug/ml
[11] = biological target: Scl-70 (UniProt P11387); test: AtheNA, Ab 25 ug/ml
[12] = biological target: Sm (Smith antigen); test: AtheNA, Ab 25 ug/ml
[13] = biological target: RNP (ribonucleoprotein); test: AtheNA, Ab 12.5 ug/ml
[14] = biological target: SSB (UniProt P05455); test: AtheNA, Ab 12.5 ug/ml
[15] = biological target: Centromere B (UniProt P07199); test: AtheNA, Ab 6.25 ug/ml
[16] = biological target: Histones; test: AtheNA, Ab 6.25 ug/ml
[17] = biological target: Jo-1 (UniProt P12081); test: AtheNA, Ab 6.25 ug/ml
[18] = biological target: RNP (ribonucleoprotein); test: AtheNA, Ab 6.25 ug/ml
[19] = biological target: SSA; test: AtheNA, Ab 6.25 ug/ml
[20] = biological target: SSB (UniProt P05455); test: AtheNA, Ab 6.25 ug/ml
[21] = biological target: Scl-70 (UniProt P11387); test: AtheNA, Ab 6.25 ug/ml
[22] = biological target: Sm (Smith antigen); test: AtheNA, Ab 6.25 ug/ml
[23] = biological target: HIV-1 CH505 transmitted/founder gp120 Env (HIV-1); test: competition ELISA, blocking of CH106 binding to CH505 TF gp120 (self)

Sequence of SSB (P05455 whole entry): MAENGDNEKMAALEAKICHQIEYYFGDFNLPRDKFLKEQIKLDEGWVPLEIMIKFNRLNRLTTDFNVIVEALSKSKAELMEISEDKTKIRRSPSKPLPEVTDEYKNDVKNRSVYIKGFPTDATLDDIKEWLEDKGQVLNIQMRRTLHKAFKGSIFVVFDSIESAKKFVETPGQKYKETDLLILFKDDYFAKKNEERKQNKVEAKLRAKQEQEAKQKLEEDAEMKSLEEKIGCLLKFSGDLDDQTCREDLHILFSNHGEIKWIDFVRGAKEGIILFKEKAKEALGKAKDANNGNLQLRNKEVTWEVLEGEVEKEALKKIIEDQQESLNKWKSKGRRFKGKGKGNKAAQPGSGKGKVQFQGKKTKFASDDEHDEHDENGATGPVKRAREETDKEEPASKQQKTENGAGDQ
Sequence of Jo-1 (P12081 whole entry): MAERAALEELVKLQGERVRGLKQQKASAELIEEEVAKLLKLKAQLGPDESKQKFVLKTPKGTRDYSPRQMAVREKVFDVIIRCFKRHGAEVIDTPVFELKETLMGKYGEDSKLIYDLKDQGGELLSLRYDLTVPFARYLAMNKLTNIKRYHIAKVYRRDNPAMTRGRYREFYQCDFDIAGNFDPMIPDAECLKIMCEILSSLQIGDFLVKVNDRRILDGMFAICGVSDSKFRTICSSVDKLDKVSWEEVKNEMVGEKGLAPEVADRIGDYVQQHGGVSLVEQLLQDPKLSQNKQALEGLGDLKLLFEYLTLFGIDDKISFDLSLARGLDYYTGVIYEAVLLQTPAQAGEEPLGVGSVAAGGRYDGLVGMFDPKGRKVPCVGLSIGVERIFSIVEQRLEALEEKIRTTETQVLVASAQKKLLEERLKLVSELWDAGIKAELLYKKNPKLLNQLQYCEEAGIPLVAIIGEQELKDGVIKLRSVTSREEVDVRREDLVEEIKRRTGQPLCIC
Sequence of Centromere B (P07199 whole entry): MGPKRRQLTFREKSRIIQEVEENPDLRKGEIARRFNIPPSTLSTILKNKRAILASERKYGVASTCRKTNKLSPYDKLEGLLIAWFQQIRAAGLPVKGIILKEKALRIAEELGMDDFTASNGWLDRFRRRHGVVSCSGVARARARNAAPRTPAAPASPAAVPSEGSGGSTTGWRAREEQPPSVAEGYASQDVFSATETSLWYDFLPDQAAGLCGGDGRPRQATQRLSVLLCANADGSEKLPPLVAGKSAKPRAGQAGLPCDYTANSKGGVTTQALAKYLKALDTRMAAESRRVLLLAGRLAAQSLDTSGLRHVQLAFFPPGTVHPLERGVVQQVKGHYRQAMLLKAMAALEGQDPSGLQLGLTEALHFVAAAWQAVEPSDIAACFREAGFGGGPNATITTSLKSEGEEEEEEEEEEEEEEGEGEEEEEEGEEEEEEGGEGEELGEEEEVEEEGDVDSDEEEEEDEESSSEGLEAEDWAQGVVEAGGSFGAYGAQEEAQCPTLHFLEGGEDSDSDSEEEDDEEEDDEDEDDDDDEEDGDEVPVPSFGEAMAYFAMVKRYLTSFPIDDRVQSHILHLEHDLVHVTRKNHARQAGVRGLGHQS
Sequence of Scl-70 (P11387 whole entry): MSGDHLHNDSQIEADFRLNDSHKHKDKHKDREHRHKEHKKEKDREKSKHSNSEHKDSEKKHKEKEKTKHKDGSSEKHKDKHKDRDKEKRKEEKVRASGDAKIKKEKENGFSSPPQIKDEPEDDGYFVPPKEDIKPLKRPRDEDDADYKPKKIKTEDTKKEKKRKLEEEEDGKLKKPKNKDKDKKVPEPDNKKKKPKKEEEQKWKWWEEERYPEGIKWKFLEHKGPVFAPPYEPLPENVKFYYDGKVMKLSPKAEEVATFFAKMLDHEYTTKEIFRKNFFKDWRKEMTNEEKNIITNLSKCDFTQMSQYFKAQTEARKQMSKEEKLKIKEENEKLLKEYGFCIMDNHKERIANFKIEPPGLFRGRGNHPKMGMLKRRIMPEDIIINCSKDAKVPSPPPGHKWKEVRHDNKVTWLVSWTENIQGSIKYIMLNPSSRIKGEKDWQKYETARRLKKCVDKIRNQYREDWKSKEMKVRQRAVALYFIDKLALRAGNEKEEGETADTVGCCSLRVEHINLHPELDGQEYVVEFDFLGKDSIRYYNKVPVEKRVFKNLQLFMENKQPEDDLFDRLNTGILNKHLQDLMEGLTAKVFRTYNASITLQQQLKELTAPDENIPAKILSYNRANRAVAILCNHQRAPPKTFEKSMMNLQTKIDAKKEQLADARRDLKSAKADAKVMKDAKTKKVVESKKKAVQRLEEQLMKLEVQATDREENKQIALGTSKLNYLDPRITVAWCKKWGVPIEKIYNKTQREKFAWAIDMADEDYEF

## CH106 (antibody)
[1]
  LogAUC: 11.9
[2]
  LogAUC: 11.8
[3]
  LogAUC: 11.2
[4]
  LogAUC: 7.25
[5]
  AtheNA signal (relative luminescence units): 2
[6]
  AtheNA signal (relative luminescence units): 3
[7]
  AtheNA signal (relative luminescence units): 2
[8]
  AtheNA signal (relative luminescence units): 3
[9]
  AtheNA signal (relative luminescence units): 8
[10]
  AtheNA signal (relative luminescence units): 3
[11]
  AtheNA signal (relative luminescence units): 2
[12]
  AtheNA signal (relative luminescence units): 1
[13]
  AtheNA signal (relative luminescence units): 2
[14]
  AtheNA signal (relative luminescence units): 5
[15]
  AtheNA signal (relative luminescence units): 1
[16]
  AtheNA signal (relative luminescence units): 2
[17]
  AtheNA signal (relative luminescence units): 4
[18]
  AtheNA signal (relative luminescence units): 1
[19]
  AtheNA signal (relative luminescence units): 10
[20]
  AtheNA signal (relative luminescence units): 6
[21]
  AtheNA signal (relative luminescence units): 2
[22]
  AtheNA signal (relative luminescence units): 5
[23]
  IC50: 2.5 µg/mL
